B1: NZM-mFc, variant of NZM in which the human Fc was replaced with the murine counterpart (antibody, V domains shown)
VH: QVQLVQSGAEVKKPGASVKVSCKASGFNIKDTYIHWVRQAPGQRLEWMGRIDPANGYTKYDPKFQGRVTITADTSASTAYMELSSLRSEDTAVYYCAREGYYGNYGVYAMDYWGQGTLVTVSS
VL: DIQMTQSPSSLSASVGDRVTITCKTSQDINKYMAWYQQTPGKAPRLLIHYTSALQPGIPSRFSGSGSGRDYTFTISSLQPEDIATYYCLQYDNLWTFGQGTKVEIK
B2: NZM variant var3 (light chain CDR2 modified), full human IgG4 (antibody, V domains shown)
VH: QVQLVQSGAEVKKPGASVKVSCKASGFNIKDTYIHWVRQAPGQRLEWMGRIDPANGYTKYDPKFQGRVTITADTSASTAYMELSSLRSEDTAVYYCAREGYYGNYGVYAMDYWGQGTLVTVSS
VL: DIQMTQSPSSLSASVGDRVTITCKTSQDINKYMAWYQQTPGKAPRLLIHYTKSNQPGIPSRFSGSGSGRDYTFTISSLQPEDIATYYCLQYDNLWTFGQGTKVEIK
B3: NZM variant var2 (light chain CDR2 modified), full human IgG4 (antibody, V domains shown)
VH: QVQLVQSGAEVKKPGASVKVSCKASGFNIKDTYIHWVRQAPGQRLEWMGRIDPANGYTKYDPKFQGRVTITADTSASTAYMELSSLRSEDTAVYYCAREGYYGNYGVYAMDYWGQGTLVTVSS
VL: DIQMTQSPSSLSASVGDRVTITCKTSQDINKYMAWYQQTPGKAPRLLIHYTKGNQSGIPSRFSGSGSGRDYTFTISSLQPEDIATYYCLQYDNLWTFGQGTKVEIK
B4: NZM variant var1 (light chain CDR2 modified), full human IgG4 (antibody, V domains shown)
VH: QVQLVQSGAEVKKPGASVKVSCKASGFNIKDTYIHWVRQAPGQRLEWMGRIDPANGYTKYDPKFQGRVTITADTSASTAYMELSSLRSEDTAVYYCAREGYYGNYGVYAMDYWGQGTLVTVSS
VL: DIQMTQSPSSLSASVGDRVTITCKTSQDINKYMAWYQQTPGKAPRLLIHYTKGNQPGIPSRFSGSGSGRDYTFTISSLQPEDIATYYCLQYDNLWTFGQGTKVEIK
B5: Natalizumab (NZM), humanized monoclonal IgG4 antibody to α4 integrins (antibody, V domains shown)
VH: QVQLVQSGAEVKKPGASVKVSCKASGFNIKDTYIHWVRQAPGQRLEWMGRIDPANGYTKYDPKFQGRVTITADTSASTAYMELSSLRSEDTAVYYCAREGYYGNYGVYAMDYWGQGTLVTVSS
VL: DIQMTQSPSSLSASVGDRVTITCKTSQDINKYMAWYQQTPGKAPRLLIHYTSALQPGIPSRFSGSGSGRDYTFTISSLQPEDIATYYCLQYDNLWTFGQGTKVEIK
B6: NZM variant var4 (light chain CDR2 modified), full human IgG4 (antibody, V domains shown)
VH: QVQLVQSGAEVKKPGASVKVSCKASGFNIKDTYIHWVRQAPGQRLEWMGRIDPANGYTKYDPKFQGRVTITADTSASTAYMELSSLRSEDTAVYYCAREGYYGNYGVYAMDYWGQGTLVTVSS
VL: DIQMTQSPSSLSASVGDRVTITCKTSQDINKYMAWYQQTPGKAPRLLIHYTKSNQSGIPSRFSGSGSGRDYTFTISSLQPEDIATYYCLQYDNLWTFGQGTKVEIK

The first assay has as its target T1, α4 integrin on the surface of T cells (Homo sapiens, UniProt P13612). Nature of the assay: flow cytometry on cells. In general terms: Flow cytometry measures light scatter and fluorescence of single cells or particles in a stream.
B1: the binding result is reported as “binds”.

The next assay has as its target T1, α4 integrin on the surface of T cells. The experiment in a line: flow cytometry on cells. The source holds these as a separate data set.
As to B2, the binding result was “binds”.
For B3, the binding result is “binds”.
Same read-out and setting: to B4 belongs “binds”; to B5, “binds”.
Consider B6, for which the binding result was “binds”.
